Where two headings read alike, the source gives them in different places.
Legend:
[1] = biological target: AP33 antibody (wild type mouse monoclonal)
[2] = biological target: T1, AP33 antibody (wild type mouse monoclonal); experiment: SPR, B2.1A scFv amine-coupled to CM4 chip, AP33 injected, single-cycle kinetics
T1 construct: also called WT AP33; Ab1

[3] = biological target: T1, AP33 antibody (wild type mouse …); experiment: SPR, B2.1A scFv amine-coupled to CM5 chip, AP33 injected, single-cycle kinetics
[4] = biological target: T1, AP33 antibody (wild type mouse …); experiment: Ab2 binding screen
AP33 light-chain alone = biological target: T2, AP33 light-chain alone (Mus musculus (Mouse), UniProt P01661 21-131); experiment: Ab2 binding screen
T2 construct: also called AP33 LC; LC

[5] = biological target: HCV E2 envelope glycoprotein (hepatitis C virus, UniProt P27958 384-746); experiment: ELISA of E2 on AP33 alanine mutants
Sequence of HCV E2 envelope glycoprotein (P27958 384-746 limits assumed): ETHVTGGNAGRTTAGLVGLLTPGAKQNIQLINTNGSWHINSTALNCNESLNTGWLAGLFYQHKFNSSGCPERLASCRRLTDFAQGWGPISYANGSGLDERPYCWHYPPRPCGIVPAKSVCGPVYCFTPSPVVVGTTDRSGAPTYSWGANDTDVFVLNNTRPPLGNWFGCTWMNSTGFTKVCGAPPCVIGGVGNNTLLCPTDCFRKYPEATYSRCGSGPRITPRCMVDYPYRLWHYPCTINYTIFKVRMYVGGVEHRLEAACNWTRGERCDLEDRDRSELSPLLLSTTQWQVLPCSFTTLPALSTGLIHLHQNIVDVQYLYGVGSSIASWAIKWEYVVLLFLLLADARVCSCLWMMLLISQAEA

B1: B2.1A scFv (scFv)
scFv: DANSQVQLQESGTELVKPGASVKLSCKASGYTFTNYWMHWVKQRPGQGLEWIGEINPSDGHTNYNEKFKSKATLTVDKSSSTAYMQLSSLTSEDSAVYYCARPWAFGNYGAWFAYWGQGTLVTVSAGGSGGSGGGGSGGGGSGGGASDIVMTQSPKFMSTSVGDRVSITCKASQNVRTAVAWYQQKPGQSPKALIYLASSRHTGVPDRFTGSGSGTDFTLTISNVQSEDLADYFCLQHWNYPYTFGGGTKLEIKSRHHHHHH
notes: also called single-chain variable fragment (scFv) of B2.1A; Ab2
B1 was tested, and the Kd [1] was 8 nM, the koff [1] was 0.00039 s⁻¹ and the kon [1] was 48700 M⁻¹ s⁻¹. It also gave a Kd [2] of 20.7 nM, a koff [2] of 0.000243 s⁻¹ and a kon [2] of 11800 M⁻¹ s⁻¹. The Kd [3] was 28.6 nM, the koff [3] was 0.000321 s⁻¹ and the kon [3] was 11200 M⁻¹ s⁻¹.

B2: B2.1A antibody (antibody, V domains shown)
VH: QVQLQESGTELVKPGASVKLSCKASGYTFTNYWMHWVKQRPGQGLEWIGEINPSDGHTNYNEKFKSKATLTVDKSSSTAYMQLSSLTSEDSAVYYCARPWAFGNYGAWFAYWGQGTLVTVSA
VL: DIVMTQSPKFMSTSVGDRVSITCKASQNVRTAVAWYQQKPGQSPKALIYLASSRHTGVPDRFTGSGSGTDFTLTISNVQSEDLADYFCLQHWNYPYTFGGGTKLEIKR
notes: also called anti-Id B2.1A; Ab2
B2: binds [4]; no binding (AP33 light-chain alone).

B3: AP33 mutant YH50A (antibody, V domains shown)
VH: EVQLQESGPSLVKPSQTLSLTCSVTGDSITSGYWNWIRKFPGNKLEYMGAISYSGSTYYNLSLRSRISITRDTSKNQYYLQLNSVTTEDTATYYCALITTTTYAMDYWGQGTSVTVS
VL: NIVLTQSPVSLAVSLGQRATISCRASESVDGYGNSFLHWFQQKPGQPPKLLIYLASNLNSGVPARFSGSGSRTDFTLTIDPVEADDAATYYCQQNNVDPWTFGGGTKLEIK
B3 was tested, and the “reduction of binding relative to WT AP33” value [5] was 90%.

B4: AP33 mutant YH100A (antibody, V domains shown)
VH: EVQLQESGPSLVKPSQTLSLTCSVTGDSITSGYWNWIRKFPGNKLEYMGYISYSGSTYYNLSLRSRISITRDTSKNQYYLQLNSVTTEDTATYYCALITTTTAAMDYWGQGTSVTVS
VL: NIVLTQSPVSLAVSLGQRATISCRASESVDGYGNSFLHWFQQKPGQPPKLLIYLASNLNSGVPARFSGSGSRTDFTLTIDPVEADDAATYYCQQNNVDPWTFGGGTKLEIK
With B4 the “reduction of binding relative to WT AP33” value [5] was 90%.

Reference: patent publication US20170283484A1 (UNITED KINGDOM RESEARCH AND INNOVATION, published 2017)
